B1: SNX8 (parent)
chain: RMVPALPPKRMLGADREFIEARRR
B2: PHTF1 (parent)
chain: RVKLISNKGTETDNDPSCVHPIIK

Variants of: B1
Test: protein stability index of a GFP-peptide fusion (GPS, HEK-293T) (PSI 1-6); higher = more stable
Conditions: c terminus: a fixed tail appended
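Note: lentivirally expressed fusions sorted by FACS into six bins by GFP to DsRed ratio, PSI derived from sequencing read proportions per bin multiplied by bin number.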

Variant | protein stability index
R24C | 3.53
R24Q | 3.52
R24G | 3.94
R24D | 4
R24Y | 2.38
R24E | 4.23
R24F | 3.2
R24A | 4
R24L | 2.92
R24W | 3.05
R24T | 3.95
R24M | 2.96
R24S | 3.46
R24K | 3.74
R24H | 3.83
R24P | 3.53
R24I | 3.11
R24N | 3.66
R24V | 3.31
E20F | 3.12
E20A | 3.51
E20D | 4.31
E20V | 4.11

Variant | protein stability index
E20S | 4
E20M | 3.39
E20T | 3.99
E20C | 4.06
E20G | 4.02
E20Y | 3.68
E20H | 3.98
E20I | 3.27
E20W | 3.26
E20P | 4.24
E20N | 4.12
E20Q | 4.01
E20R | 4.28
E20K | 3.94
E20L | 3.9
A21T | 3.96
A21H | 4.32
A21M | 3.04
A21C | 4.08
A21W | 2.67
A21E | 3.43
A21P | 3.88
A21K | 4.19

Variant | protein stability index
A21S | 3.12
A21Y | 3.24
A21L | 4.1
A21R | 3.56
A21G | 4.32
A21V | 3.76
A21N | 4.52
A21I | 3.34
A21F | 3.31
A21D | 3.83
A21Q | 3.61
I19H | 3.35
I19Q | 4.29
I19G | 3.96
I19P | 4.65
I19W | 3.82
I19R | 4.16
I19N | 3.73
I19C | 3.36
I19Y | 3.98
I19S | 3.43
I19L | 3.06
I19D | 4.41

Variant | protein stability index
I19F | 3.61
I19E | 4.11
I19T | 4.39
I19M | 3.55
I19K | 4.26
I19V | 4.09
R22A | 4.33
R22P | 3.79
R22E | 4.43
R22I | 2.74
R22K | 4.09
R22C | 4
R22G | 4.02
R22W | 2.73
R22D | 4.53
R22V | 3.33
R22L | 2.92
R22S | 3.75
R22N | 3.77
R22H | 3.76
R22Q | 4.05
R22Y | 3.43
R22M | 3.16

Variant | protein stability index
R22F | 3.58
R22T | 3.75
R23W | 1.28
R23Q | 3.11
R23A | 2.54
R23Y | 2.97
R23F | 1.75
R23C | 2.95
R23P | 3.66
R23M | 2.4
R23V | 3.4
R23N | 3.94
R23H | 2.21
R23G | 3.79
R23K | 4.02
R23S | 3.56
R23L | 3.65
R23I | 2.58
R23T | 3.56
R23E | 4.16
R23D | 4.53

Variants of: B2
Test: as above
Conditions: c terminus: a fixed tail appended

Variant | protein stability index
S6K | 4.36
S6Q | 4.26
S6V | 3.52
S6H | 4.03
S6G | 4.38
S6Y | 3.34
S6T | 3.95
S6E | 3.85
S6I | 3.23
S6R | 3.62
S6P | 4.17
S6W | 2.86
S6M | 3.14
S6F | 2.77
S6L | 2.97
S6C | 3.76
S6A | 4
S6N | 4.26
S6D | 4.49
E11G | 3.57
E11H | 3.41
E11F | 2.71
E11N | 4.04
E11R | 3.45
E11W | 2.43

Variant | protein stability index
E11M | 3.13
E11V | 3.16
E11S | 3.55
E11C | 3.69
E11D | 4.05
E11Q | 3.57
E11K | 3.7
E11Y | 3
E11A | 4.04
E11L | 3.41
E11I | 3.24
E11P | 3.95
E11T | 3.82
G9E | 4.23
G9R | 3.54
G9S | 4.21
G9Q | 4.31
G9N | 4.17
G9M | 3.75
G9T | 4.27
G9P | 3.95
G9L | 3.64
G9Y | 3.44
G9D | 4.36
G9A | 4.12

Variant | protein stability index
G9H | 4.03
G9C | 3.56
G9I | 3.25
G9W | 2.8
G9V | 4.18
G9K | 3.98
G9F | 3.19
I5T | 4.25
I5R | 3.86
I5N | 4.41
I5H | 4.3
I5Y | 3.75
I5W | 3.6
I5S | 4.3
I5G | 4.09
I5F | 4.02
I5A | 4.11
I5L | 4.4
I5C | 3.97
I5V | 4
I5P | 4.8
I5Q | 4.8
I5E | 4.63
I5K | 4.01
I5D | 4.7

Variant | protein stability index
I5M | 4.3
K3C | 3.52
K3H | 3.83
K3T | 4.19
K3E | 4.64
K3P | 4.55
K3L | 2.72
K3D | 4.48
K3Y | 2.86
K3S | 4.33
K3V | 3.29
K3R | 3.92
K3W | 2.56
K3N | 4.32
K3G | 4.31
K3M | 3.67
K3F | 3.29
K3A | 4.38
K3Q | 4.07
K3I | 2.81
V2H | 4.2
V2N | 4.5
V2L | 4.19
V2E | 4.78
V2G | 3.52

Variant | protein stability index
V2K | 4.6
V2M | 3.97
V2S | 4.44
V2C | 4.02
V2D | 4.54
V2R | 4.45
V2Y | 3.54
V2I | 4.18
V2T | 4.35
V2A | 4.41
V2W | 3.61
V2F | 3.26
V2Q | 4.65
V2P | 4.68
N7T | 4
N7G | 3.96
N7H | 3.79
N7L | 3.36
N7I | 3.6
N7P | 4.09
N7F | 2.92
N7M | 3.36
N7E | 4.2
N7V | 3.77
N7R | 3.47

Variant | protein stability index
N7K | 4.31
N7S | 4.22
N7D | 4.26
N7W | 3.1
N7A | 4.02
N7Q | 4.09
N7C | 3.64
N7Y | 3.32
T10S | 3.88
T10I | 3.74
T10Y | 3.94
T10Q | 4.51
T10R | 3.91
T10E | 4.26
T10D | 4.1
T10A | 4.2
T10G | 4.01
T10M | 3.98
T10V | 3.38
T10H | 4.52
T10F | 3.1
T10N | 4.2
T10K | 3.95
T10P | 4.29
T10L | 3.38

Variant | protein stability index
T10W | 2.66
T10C | 3.8
L4Q | 5.02
L4P | 4.82
L4M | 4.13
L4S | 4.61
L4F | 3.9
L4I | 4.19
L4C | 4.48
L4K | 4.43
L4H | 4.27
L4T | 4.84
L4Y | 3.77
L4E | 5.13
L4G | 4.44
L4D | 4.18
L4W | 4.24
L4R | 4.25
L4A | 4.57
L4V | 3.86
L4N | 4.48
T12M | 3.44
T12L | 3.61
T12E | 4.53
T12N | 4.26

Variant | protein stability index
T12H | 4.24
T12F | 3.67
T12C | 3.87
T12K | 4.49
T12A | 4.11
T12I | 3.86
T12D | 4.31
T12G | 4.14
R1F | 2.21
R1W | 2.81
R1S | 4.56
R1K | 4.05
R1P | 4.44
R1N | 4.63
R1T | 4.2
R1D | 4.74
R1A | 4.57
R1L | 3.51
R1Y | 2.79
R1V | 3.41
R1C | 3.93
R1Q | 4.45
R1E | 4.14
R1H | 4.12
R1M | 3.66

Variant | protein stability index
R1G | 4.15
R1I | 3.16
K8I | 3.78
K8R | 3.95
K8E | 4.42
K8F | 3.56
K8G | 4.62
K8L | 3.33
K8D | 4.45
K8H | 3.94
K8S | 4.21
K8W | 2.89
K8C | 3.04
K8V | 3.88
K8N | 3.96
K8M | 3.15
K8Y | 3.22
K8Q | 4.7
K8P | 3.64
K8T | 4.33
K8A | 4.1
